Results reported in patent US20240262904A1 (SHANGHAI MABGEEK BIOTECH, published 2024).

Legend:
TSLP-flag-Biotin = molecular target: T1, TSLP-flag-Biotin (human, UniProt Q969D9 29-159, limits assumed, biotin label, site not stated); test: competition ELISA by the method of Example 5: blocks TSLP-flag-Biotin binding to coated TSLPR-ECD-hFc
T1 construct: the labelling is not described; also called biotinylated TSLP-flag

[1] = molecular target: T2, human TSLP antigen tagged with Flag (hTSLP-Flag) (human, UniProt Q969D9 29-159, limits assumed); test: cell-based or functional assay
[2] = molecular target: T2, human TSLP antigen tagged with Flag …; test: SPR, Biacore T200, antibody captured on Protein A chip, hTSLP-Flag as analyte

B1: humanized anti-human TSLP antibody 101H (antibody, human IgG1, kappa, V domains shown)
VH: QVQLVQSGAEVKKPGASVKVSCKTSGYTFTKYWIQWVRQAPGQGLEWIGEIFPGTGTTYYNEIFKARVTLTVDTSTSTAYMELSSLRSEDTAVYYCARRGDYDVYYALDYWGQGTLVTVSS
VL: EIVLTQSPATLSLSPGERATLSCSANSGVNYIHWYQQKPGQAPRFWIWTTSNLASGVPARFSGSGSGTDFTLTISSLEPEDFAVYYCQQRSSYPFTFGQGTKLEIKR
notes: Humanized, human IgG1 constant region; also called humanized antibody No. 101
With B1 as the binder, how does the IC50 (TSLP-flag-Biotin) read?
The IC50 was 0.185 µg/mL.

B2: humanized anti-human TSLP antibody 111H (antibody, human IgG1, kappa, V domains shown)
VH: EVQLVESGGGLVQPGGSLRLSCSVSGFSLTYSGVNWVRQAPGKGLEWLGAIWGDGSTNYHSALISRLTISKDNSKSTVYLQMNSLRAEDTAVYYCAKPDGYSGIFAYWGQGTLVTVSS
VL: EIVLTQSPGTLSLSPGERATLSCSASSSLSSNYLHWYQQKPGQAPRLLIYRTSNLASGVPDRFSGSGSGTDFTLTISRLEPEDFAVYYCQQGSGILVTFGQGTKLEIKR
notes: Humanized, human IgG1 constant region; also called humanized antibody No. 111
With B2 as the binder, how does the IC50 (TSLP-flag-Biotin) read?
The IC50 was 0.167 µg/mL.

What about the “IC50 of inhibition of TSLP-dependent STAT5 activation (luciferase, IL-7R/TSLPR-BaF3-Luc (STAT5) cells, TSLP-flag stimulus)” value [1] of the same binder?
The value was 0.184 µg/mL.

B3: humanized anti-human TSLP antibody 163H (antibody, human IgG1, kappa, V domains shown)
VH: EVQLVESGGGLVQPGGSLRLSCAASGFTFSSFGMHWVRQAPGKGLEWVSYISSGSSNIYYADTVKGRFTISRDNAKNSLYLQMNSLRAEDTAVYYCARDGGSRRHYYVMDYWGQGTLVTVSS
VL: EIVLTQSPATLSLSPGERATLSCKASQDVSPAVAWYQQKPGQSPRLLIYSASYRYTGVPARFSGSGSGTDFTLTISSLEPEDFAVYYCQQHYSSPFTFGQGTKLEIKR
notes: Humanized, human IgG1 constant region
For B3, which IC50 (TSLP-flag-Biotin) is on record?
Its IC50 is 0.159 µg/mL.

And the Kd [2]?
Its Kd is 0.0513 nM.

What about the koff [2] of the same binder?
Its koff is 0.000302 s⁻¹.

And the kon [2]?
The kon was 5.89e+06 M⁻¹ s⁻¹.

What about the “IC50 of inhibition of TSLP-dependent STAT5 activation (luciferase, IL-7R/TSLPR-BaF3-Luc (STAT5) cells, TSLP-flag stimulus)” value [1] of the same binder?
Its value is 0.378 µg/mL.
